The record followed here is patent publication US20140286859A1 (published 2014).

The experiment deals with recombinant soluble PSMA (rsPSMA) (human, UniProt Q04609 44-750).

Where “and” joins values, the source holds several entries; their conditions need not be identical. Identical values can stand only once.

recombinant soluble PSMA (rsPSMA), sequence (Q04609 44-750): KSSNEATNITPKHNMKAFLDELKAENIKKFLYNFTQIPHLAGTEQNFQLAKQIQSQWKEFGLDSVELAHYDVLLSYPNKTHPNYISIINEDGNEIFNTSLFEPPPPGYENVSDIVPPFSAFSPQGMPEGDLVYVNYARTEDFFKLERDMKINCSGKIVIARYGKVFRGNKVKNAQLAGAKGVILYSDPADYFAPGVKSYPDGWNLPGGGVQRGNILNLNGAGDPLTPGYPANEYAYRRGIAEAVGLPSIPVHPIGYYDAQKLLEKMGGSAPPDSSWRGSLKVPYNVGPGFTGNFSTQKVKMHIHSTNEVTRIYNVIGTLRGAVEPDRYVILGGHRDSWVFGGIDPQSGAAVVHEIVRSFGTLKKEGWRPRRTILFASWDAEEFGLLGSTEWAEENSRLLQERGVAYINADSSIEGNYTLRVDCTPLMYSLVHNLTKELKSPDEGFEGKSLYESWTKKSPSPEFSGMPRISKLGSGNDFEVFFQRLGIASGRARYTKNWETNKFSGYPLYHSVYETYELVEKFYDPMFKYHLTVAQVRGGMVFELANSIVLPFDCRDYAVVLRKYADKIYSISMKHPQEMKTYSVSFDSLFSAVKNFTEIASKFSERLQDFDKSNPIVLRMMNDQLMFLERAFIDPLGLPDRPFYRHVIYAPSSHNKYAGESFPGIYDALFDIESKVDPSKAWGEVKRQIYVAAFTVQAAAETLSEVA

B1: PSMA 10.3 (antibody, V domains shown)
VH: QEQLVESGGGVVQPGRSLRLSCAASGFTFSTYGMHWVRQAPGKGLEWVAVTWHDGSNKYYADSVKGRFTISRDNSKNTLYLQMNSLRAEDTAVYYCARGGVGATYYYYYGMDVWGQGTTVTVSS
VL: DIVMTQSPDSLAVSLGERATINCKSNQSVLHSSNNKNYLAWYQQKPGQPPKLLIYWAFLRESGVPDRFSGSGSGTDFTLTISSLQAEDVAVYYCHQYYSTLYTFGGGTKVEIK
The koff is a measure of how fast the partners let go of each other. As for B1, the koff is 6.32e-05 s⁻¹ and 6.43e-05 s⁻¹.
